Results on 8 molecules are retold here after patent publication US20040098763A1 (published 2004).

Assay [1] deals with T1, Cdc2b (Cdc2bAt) in DB-vector (A. thaliana, UniProt P04386 1-147; P25859 1-309).
T1 construct: Yeast two-hybrid DB/BD fusion
Put plainly: yeast two-hybrid (MaV203), X-Gal filter assay for β-galactosidase; AD construct x BD construct. The protocol: (§1) ⁽¹⁾For each interaction test, yeast strain (MaV203) was transformed first with AD constructs listed in the first row, and then with BD constructs listed in the first column of the table following standard protocol. Three independent colonies from each interaction combination were used in X-Gal filter assay for β-galactosidase activity. The results of X-Gal assays were recorded at 2, 4, and 20 hours (overnight). Color intensity determined by visual inspection: “−” = none; “+” = weak; “++” = moderate; “+++” = strong. ⁽²⁾Faint color was visible after overnight incubation.

In assay [2] the target is T2, Cdc2a (Cdc2aAt) in DB-vector (Arabidopsis, UniProt P04386 1-147; P24100 1-294).
T2 construct: Yeast two-hybrid DB/BD fusion; also called Arath;CDKA;1
Described as above. Here is the method: as §1

The target of assay [3] is T3, CycB2 (Arath; CycB2; 2) in DB-vector (A. thaliana, UniProt P04386 1-147; Q39070 1-429).
T3 construct: Yeast two-hybrid DB fusion
The assay is described as follows: yeast two-hybrid, quantification of reporter activity; ICK1 in GAL4-AD vector, partner in DB vector.

Assay [4] concerns the target T1, Cdc2b (Cdc2bAt) in DB-vector. The description is as above.
The target of another assay is T4, ATMAP2 in DB-vector (A. thaliana).
T4 construct: Yeast two-hybrid DB fusion; also called MAP kinase
The description is as above.

The target of assay [5] is T5, CycB1 (Arath; CycB1; 1) in DB-vector (A. thaliana, UniProt P04386 1-147; P30183 1-428).
T5 construct: Yeast two-hybrid DB fusion; also called Cyc1At
Described as above.

Assay [6] concerns the target T6, CycD1 (Arath; CycD1; 1) in DB-vector (A. thaliana, UniProt P04386 1-147; P42751 1-339).
T6 construct: Yeast two-hybrid DB/BD fusion
The description is as above.

Assay [7] addresses T7, vector alone (DB-vector without a gene) (UniProt P04386 1-147).
T7 construct: also called Control
Described as above.

Assay [8] addresses T8, CycD2 (Arath; CycD2; 1) in DB-vector (Arabidopsis, UniProt P04386 1-147; P42752 1-361).
T8 construct: Yeast two-hybrid DB/BD fusion; also called cyclin D2
The assay is described as above.

The target of assay [9] is T9, CycA2 (Arath; CycA2; 2) in DB-vector (A. thaliana, UniProt P04386 1-147; Q147G5 1-436, limits assumed).
T9 construct: Yeast two-hybrid DB fusion
The assay is described as above.

The next assay concerns the target T10, PCNAAt in DB-vector (Arabidopsis).
T10 construct: Yeast two-hybrid DB/BD fusion; also called Arabidopsis PCNA
The assay is described as above.

For assay [10], the target named is T11, CycD3 (Arath; CycD3; 1) in DB-vector (Arabidopsis, UniProt P04386 1-147; P42753 1-376).
T11 construct: Yeast two-hybrid DB/BD fusion; also called cyclin D3
The assay is described as above.

Assay [11] concerns the target T2, Cdc2a (Cdc2aAt) in DB-vector. Described as above.
The target in assay [12] is T6, CycD1 (Arath; CycD1; 1) in DB-vector. Put plainly: yeast two-hybrid (MaV203), X-Gal filter assay for β-galactosidase; AD construct x BD construct. The protocol: as §1
Assay [13] deals with T8, CycD2 (Arath; CycD2; 1) in DB-vector. The assay is described as above. Here is the method:
as §1

B1: ICDK of Chenopodium rubrum (AD construct) (other, not shown: large carriers)
chain: MAAAATPTSSPAKKIKKVSKSSYNIPQLRSRRKNLSAPENFAELETTPLEVAAVVEEEEVANCSSSEVITTARSDFPPSCCSSNYDQLSSSEPEVVKDDDGLGNRTADPEVESGEASSKQKESHRTEAREATKLDDQDYPATKSTVQIKMPSDSEIEEFFAVAEKDLQKRFSEKYNFDIVKDVPLKGRYDWVPINP
notes: Yeast two-hybrid AD fusion; also called ICKCr; Chenopodium ICDK
As for B1, the binding result in assay [1] and in assay [2] was “no binding” in each case.

B2: ICK2 (AD construct) (other, not shown: large carriers)
chain: MAAVRRRERDVVEENGVTTTTVKRRKMEEEVDLVESRIILSPCVQATNRGGIVARNSAGASETSVVIVRRRDSPPVEEQCQIEEEDSSVSCCSTSEEKSKRRIEFVDLEENNGDDRETETSWIYDDLNKSEESMNMDSSSVAVEDVESRRRLRKSLHETVKEAELEDFFQVAEKDLRNKLLECSMKYNFDFEKDEPLGGGRYEWVKLNP
For B2, the binding result in assay [1] is given as “no binding”.

B3: ICN6 (AD construct) (other, not shown: large carriers)
chain: LSPEKTIMSLREMSETKPKRDSEYEGSNIKRMRLDDDDDVLRSPTRTLSSSSSSSLAYSVSDSGGFCSVALSEEEDDHLSSSISSGCSSSETNEIATRLPFSDLEAHEISETEISTLLTNNFRKQGISSSENLGETAEMDSATTEMRDQRKTEKKKKMEKSPTQAELDDFFSAAERYEQKRFTEKYNYDIVNDTPLEGRYQWVSLKP
notes: also called ICK5
In the case of B3, the binding result in assay [1] and in assay [2] was “no binding” each time.

B4: ICN2 (AD construct) (other, not shown: large carriers)
chain: KKKQRERAHKNPREKKMSERKRELAEEASSTSFSPLKKTKLNDSSDSSPDSHDVIVFAVSSSSVASSAALASDECSVTIGGEESDQSSSISSGCFTSESKEIAKNSSSFGVDLEDHQIETETETSTFITSNFRKETSPVSEGLGETTTEMESSSATKRKQPGVRKTPTAAEIEDLFSELESQDDKKKQFIEKYNFDIVNDEPLEGRYKWDRL
notes: also called ICK4
For B4, the binding result in assay [1] and in [2] was “no binding” throughout.

B5: ICN8 (AD construct) (other, not shown: large carriers)
chain: MGKYIRKSKIDGAGAGAGGGGGGGGGGESSIALMDVVSPSSSSSLGVLTRAKSLALQQQQQRCLLQKPSSPSSLPPTSASPNPPSKQKMKKKQQQMNDCGSYLQLRSRRLQKKPPIVVIRSTKRRKQQRRNETCGRNPNPRSNLDSIRGDGSRSDSVSESVVFGKDKDLISEINKDPTFGQNFFDLEEEHTQSFNRTTRESTPCSLIRRPEIMTTPGSSTKLNICVSESNQREDSLSRSHRRRPTTPEMDEFFSGAEEEQQKQFIEKYNFDPVNEQPLPGRFEWTKVDD
notes: Yeast two-hybrid AD fusion; also called ICK7
As to B5, the binding result in assay [1] is listed as “no binding”.

B6: ICN7 (AD construct) (other, not shown: large carriers)
chain: MGKYMKKSKITGDISVMEVSKATAPSPGVRTRAAKTLALKRLNSSAADSALPNDSSCYLQLRSRRLEKPSSLIEPKQPPRVHRSGIKESGSRSRVDSVNSAPVAQSSNEDECFDNFVSVQVSCGENSLGFESRHSTRESTPCNFVEDMEIMVTPGSSTRSMCRATKEYTREQDNVIPTTSEMEEFFAYAEQQQQRLFMEKYNFDIVNDIPLSGRYEWVQVKP
notes: also called ICK6
On to B6, for which, in assay [1], the binding result is recorded as “no binding”.

B7: ICK1 in a GAL4-activation domain vector (other, not shown: large carriers)
chain: MVRKYRKAKGIVEAGVSSTYMQLRSRRIVYVRSEKSSSVSVVGDNGVSSSCSGSNEYKKKELIHLEEEDKDGDTETSTYRRGTKRKLFENLREEEKEELSKSMENYSSEFESAVKESLDCCCSGRKTMEETVTAEEEEKAKLMTEMPTESEIEDFFVEAEKQLKEKFKKKYNFDFEKEKPLEGRYEWVKLE
notes: Yeast two-hybrid AD fusion; the GAL4 domain is placed first as in standard vectors
On to B7, for which the “Quantification (yeast two-hybrid reporter activity)” value in assay [3] was found to be 0.05; in [4], 0; with ATMAP2 in DB-vector, 0; in assay [5], 0.06; in [6] it was 3.13; in assay [7] it was 0. For the same molecule, the “Quantification (yeast two-hybrid reporter activity)” value stood at 14.8 in assay [8]; 0.03 in [9]; 0 with PCNAAt in DB-vector; 22.7 in assay [10]; 2.65 in assay [11]. Moreover, in assay [1], the binding result is recorded as “no binding”.

B8: CKS1At (AD construct) (other, UniProt O23249 1-87, looked up, not shown: large carriers)
chain: MGQIQYSEKYFDDTFEYRHVVLPPEVAKLLPKNRLLSENEWRAIGVQQSRGWVHYAVHRPEPHIMLFRRPLNYQQQQENQAQNMLVK
In the case of B8, the binding result in assay [12] and in [13] was “no binding” throughout.
